# Test results taken from patent US20140249052A1.
# Target: Bio-GrBP5 (biotin-graphite binding peptide fusion, Bio-…)
# Test: integrated photoluminescence at 605 nm (514 nm laser) of SA-QD immobilised on bio-GrBP5 nanowires on graphite; the row 'SA-QD Bare' (38019.9, Std. Dev. 8427) is on graphite without peptide
substance,measurement,value
"Cd-Se Qdot 605-streptavidin conjugate (Q10101MP, Life Technologies) (from UniProt P22629 37-163)",Intensity (AU),88200 AU
